Data on 5 molecules can be found in patent US20240052038A1 (IMMUNOBRAIN CHECKPOINT, published 2024).

Some results are limits rather than exact numbers.

In test [1] the target is T1, cynomolgus monkey PD-L1 on blood T lymphocytes (cynomolgus monkey, UniProt G7PSE7 19-290).
T1 construct: also called PD-L1 receptor (cynomolgus T cells)
Put plainly: receptor occupancy on blood T lymphocytes by flow cytometry, cynomolgus monkeys, up to day 12 after 13 mg/kg IV. For orientation: Flow cytometry measures light scatter and fluorescence of single cells or particles in a stream.
Method: (§1) Blood (8 mL) for PBMC isolation was collected at least one day prior to dose and 5, 14, 21 and 30-days post-injection. […] All collected blood and serum samples were frozen for subsequent analysis. […] These antibodies came from a different expression system using transfected HEK cells. Blood (8 mL) for PBMC isolation was collected at least one day prior to dose and 5, 14, 21, 30 and 45-days post-injection. […] All collected blood and serum samples were frozen for subsequent analysis.
(§2) One day prior to dosing (baseline), and on 5, 14, 21, and 30-days post treatment, 8 mL of whole blood was collected for Peripheral Blood Mononuclear Cell (PBMC) isolation and cryopreservation. In the second study, whole blood was also collected also at 45-days post treatment. Samples were analyzed for PD-L1 receptor occupancy on blood T lymphocytes and for Immunophenotype of different immune cell subpopulations. The percentage of PD-L1 receptor occupancy on blood T-lymphocytes by the antibody was assessed using the same method as described above for receptor occupancy in mice.

The target in test [2] is T1, cynomolgus monkey PD-L1 on blood T …. Put plainly: receptor occupancy on blood T lymphocytes by flow cytometry, cynomolgus monkeys, day 20 after 13 mg/kg IV (antibody cleared).
Method: as §1, §2
The target in test [3] is T2, human PD-L1 (human, UniProt Q9NZQ7 19-238, limits assumed).
T2 construct: also called hPD-L1; Programmed Death-Ligand 1
Put plainly: SPR, kinetics.

Test [4] deals with cynomolgus monkey PD-L1 (cynomolgus monkey, UniProt G7PSE7 19-238). Put plainly: SPR.
Test [5] has as its target T2, human PD-L1. Put plainly: SPR.

T1 sequence (G7PSE7 entry or part of it limits assumed): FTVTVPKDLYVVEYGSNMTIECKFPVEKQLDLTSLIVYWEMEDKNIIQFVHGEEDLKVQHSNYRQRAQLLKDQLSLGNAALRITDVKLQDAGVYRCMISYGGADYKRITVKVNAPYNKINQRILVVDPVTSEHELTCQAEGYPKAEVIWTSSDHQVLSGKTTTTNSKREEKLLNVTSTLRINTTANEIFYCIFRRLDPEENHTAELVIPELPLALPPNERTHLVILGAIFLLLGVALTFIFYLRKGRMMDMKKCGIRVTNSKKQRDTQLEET
T2 sequence (Q9NZQ7 19-238 limits assumed): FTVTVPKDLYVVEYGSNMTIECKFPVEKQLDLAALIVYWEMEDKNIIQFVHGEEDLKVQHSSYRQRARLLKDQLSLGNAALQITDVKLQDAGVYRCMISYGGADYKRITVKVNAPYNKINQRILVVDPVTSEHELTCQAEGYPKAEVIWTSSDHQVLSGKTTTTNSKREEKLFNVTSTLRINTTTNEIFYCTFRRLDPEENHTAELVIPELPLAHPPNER
Sequence of cynomolgus monkey PD-L1 (G7PSE7 entry or part of it limits assumed): as the sequence (Q9NZQ7 19-238 limits assumed) above, with A33T, A34S, S62N, R68Q, Q82R, F173L, T185A, T192I, H215L counted along it

B1: Variant 1-G09 (Fc effector null) (antibody, human IgG1, kappa, L234A L235A)
heavy: EVQLVESGGGLVQPGRSLRLSCAASGFTFDDYAMHWVRQTPGKGLEWVSGISWKSNIIGYADSVKGRFTISRDNAKNSLYLQMNSLRAEDTALYYCARDITGSGSYGWFDPWGQGTLVTVSSASTKGPSVFPLAPSSKSTSGGTAALGCLVKDYFPEPVTVSWNSGALTSGVHTFPAVLQSSGLYSLSSVVTVPSSSLGTQTYICNVNHKPSNTKVDKRVEPKSCDKTHTCPPCPAPEAAGGPSVFLFPPKPKDTLMISRTPEVTCVVVDVSHEDPEVKFNWYVDGVEVHNAKTKPREEQYNSTYRVVSVLTVLHQDWLNGKEYKCAVSNKALPAPIEKTISKAKGQPREPQVYTLPPSREEMTKNQVSLTCLVKGFYPSDIAVEWESNGQPENNYKTTPPVLDSDGSFFLYSKLTVDKSRWQQGNVFSCSVMHEALHNHYTQKSLSLSPG
light: DIQMTQSPSSLSASVGDRVTITCRASQSISSYLNWYQQKPGKAPKPLIYVASSLQSGVPSSFSGSGSGTDFTLTISSLQPEDFATYYCQQSYSNPITFGQGTRLEIKRTVAAPSVFIFPPSDEQLKSGTASVVCLLNNFYPREAKVQWKVDNALQSGNSQESVTEQDSKDSTYSLSSTLTLSKADYEKHKVYACEVTHQGLSSPVTKSFNRGEC
notes: Human IgG1 with L239A, L240A, K327A; kappa light chain; also called null mutant
As to B1, in test [1], the receptor occupancy is greater than 80%.

B2: Variant 3-G09 (Fc effector null-H440Q) (antibody, human IgG1, kappa, L234A L235A)
heavy: EVQLVESGGGLVQPGRSLRLSCAASGFTFDDYAMHWVRQTPGKGLEWVSGISWKSNIIGYADSVKGRFTISRDNAKNSLYLQMNSLRAEDTALYYCARDITGSGSYGWFDPWGQGTLVTVSSASTKGPSVFPLAPSSKSTSGGTAALGCLVKDYFPEPVTVSWNSGALTSGVHTFPAVLQSSGLYSLSSVVTVPSSSLGTQTYICNVNHKPSNTKVDKRVEPKSCDKTHTCPPCPAPEAAGGPSVFLFPPKPKDTLMISRTPEVTCVVVDVSHEDPEVKFNWYVDGVEVHNAKTKPREEQYNSTYRVVSVLTVLHQDWLNGKEYKCAVSNKALPAPIEKTISKAKGQPREPQVYTLPPSREEMTKNQVSLTCLVKGFYPSDIAVEWESNGQPENNYKTTPPVLDSDGSFFLYSKLTVDKSRWQQGNVFSCSVMHEALHNQYTQKSLSLSPG
light: DIQMTQSPSSLSASVGDRVTITCRASQSISSYLNWYQQKPGKAPKPLIYVASSLQSGVPSSFSGSGSGTDFTLTISSLQPEDFATYYCQQSYSNPITFGQGTRLEIKRTVAAPSVFIFPPSDEQLKSGTASVVCLLNNFYPREAKVQWKVDNALQSGNSQESVTEQDSKDSTYSLSSTLTLSKADYEKHKVYACEVTHQGLSSPVTKSFNRGEC
notes: Human IgG1 with L239A, L240A, K327A and H440Q; kappa light chain
On to B2, for which the receptor occupancy in test [1] was greater than 80%; in test [2], less than 20%.

B3: Variant 4-G09 (Fc effector null-H315A + H440Q) (antibody, human IgG1, kappa, L234A L235A)
heavy: EVQLVESGGGLVQPGRSLRLSCAASGFTFDDYAMHWVRQTPGKGLEWVSGISWKSNIIGYADSVKGRFTISRDNAKNSLYLQMNSLRAEDTALYYCARDITGSGSYGWFDPWGQGTLVTVSSASTKGPSVFPLAPSSKSTSGGTAALGCLVKDYFPEPVTVSWNSGALTSGVHTFPAVLQSSGLYSLSSVVTVPSSSLGTQTYICNVNHKPSNTKVDKRVEPKSCDKTHTCPPCPAPEAAGGPSVFLFPPKPKDTLMISRTPEVTCVVVDVSHEDPEVKFNWYVDGVEVHNAKTKPREEQYNSTYRVVSVLTVLAQDWLNGKEYKCAVSNKALPAPIEKTISKAKGQPREPQVYTLPPSREEMTKNQVSLTCLVKGFYPSDIAVEWESNGQPENNYKTTPPVLDSDGSFFLYSKLTVDKSRWQQGNVFSCSVMHEALHNQYTQKSLSLSPG
light: DIQMTQSPSSLSASVGDRVTITCRASQSISSYLNWYQQKPGKAPKPLIYVASSLQSGVPSSFSGSGSGTDFTLTISSLQPEDFATYYCQQSYSNPITFGQGTRLEIKRTVAAPSVFIFPPSDEQLKSGTASVVCLLNNFYPREAKVQWKVDNALQSGNSQESVTEQDSKDSTYSLSSTLTLSKADYEKHKVYACEVTHQGLSSPVTKSFNRGEC
notes: Human IgG1 with L239A, L240A, K327A, H315A and H440Q; kappa light chain; also called double mutant
Take B3: the receptor occupancy in test [2] is less than 20%.

B4: Variant 2-G09 (Fc effector null-H315A) (antibody, human IgG1, kappa, L234A L235A)
heavy: EVQLVESGGGLVQPGRSLRLSCAASGFTFDDYAMHWVRQTPGKGLEWVSGISWKSNIIGYADSVKGRFTISRDNAKNSLYLQMNSLRAEDTALYYCARDITGSGSYGWFDPWGQGTLVTVSSASTKGPSVFPLAPSSKSTSGGTAALGCLVKDYFPEPVTVSWNSGALTSGVHTFPAVLQSSGLYSLSSVVTVPSSSLGTQTYICNVNHKPSNTKVDKRVEPKSCDKTHTCPPCPAPEAAGGPSVFLFPPKPKDTLMISRTPEVTCVVVDVSHEDPEVKFNWYVDGVEVHNAKTKPREEQYNSTYRVVSVLTVLAQDWLNGKEYKCAVSNKALPAPIEKTISKAKGQPREPQVYTLPPSREEMTKNQVSLTCLVKGFYPSDIAVEWESNGQPENNYKTTPPVLDSDGSFFLYSKLTVDKSRWQQGNVFSCSVMHEALHNHYTQKSLSLSPG
light: DIQMTQSPSSLSASVGDRVTITCRASQSISSYLNWYQQKPGKAPKPLIYVASSLQSGVPSSFSGSGSGTDFTLTISSLQPEDFATYYCQQSYSNPITFGQGTRLEIKRTVAAPSVFIFPPSDEQLKSGTASVVCLLNNFYPREAKVQWKVDNALQSGNSQESVTEQDSKDSTYSLSSTLTLSKADYEKHKVYACEVTHQGLSSPVTKSFNRGEC
notes: Human IgG1 with L239A, L240A, K327A and H315A; kappa light chain
On to B4, for which the results for the receptor occupancy in test [1] and in test [2] were greater than 80% and less than 20%, respectively.

B5: human anti-PD-L1 monoclonal antibody 84G09 (antibody, V domains shown)
VH: EVQLVESGGGLVQPGRSLRLSCAASGFTFDDYAMHWVRQTPGKGLEWVSGISWKSNIIGYADSVKGRFTISRDNAKNSLYLQMNSLRAEDTALYYCARDITGSGSYGWFDPWGQGTLVTVSS
VL: DIQMTQSPSSLSASVGDRVTITCRASQSISSYLNWYQQKPGKAPKPLIYVASSLQSGVPSSFSGSGSGTDFTLTISSLQPEDFATYYCQQSYSNPITFGQGTRLEIK
notes: also called anti-human PD-L1 antibody (clone 84G09)
Broadly, the Kd is a measure of binding affinity in units of concentration. With B5, the Kd in test [3] is 0.4 nM; in test [4] it was 0.52 nM; in test [5], 0.43 nM.
